Experimental findings from publication doi:10.1101/545814 (bioRxiv, 2019) are described below.

T1: MBP-Epe1 (wild-type, recombinant, full length) (S. pombe, UniProt O94603 1-948)
T1 sequence: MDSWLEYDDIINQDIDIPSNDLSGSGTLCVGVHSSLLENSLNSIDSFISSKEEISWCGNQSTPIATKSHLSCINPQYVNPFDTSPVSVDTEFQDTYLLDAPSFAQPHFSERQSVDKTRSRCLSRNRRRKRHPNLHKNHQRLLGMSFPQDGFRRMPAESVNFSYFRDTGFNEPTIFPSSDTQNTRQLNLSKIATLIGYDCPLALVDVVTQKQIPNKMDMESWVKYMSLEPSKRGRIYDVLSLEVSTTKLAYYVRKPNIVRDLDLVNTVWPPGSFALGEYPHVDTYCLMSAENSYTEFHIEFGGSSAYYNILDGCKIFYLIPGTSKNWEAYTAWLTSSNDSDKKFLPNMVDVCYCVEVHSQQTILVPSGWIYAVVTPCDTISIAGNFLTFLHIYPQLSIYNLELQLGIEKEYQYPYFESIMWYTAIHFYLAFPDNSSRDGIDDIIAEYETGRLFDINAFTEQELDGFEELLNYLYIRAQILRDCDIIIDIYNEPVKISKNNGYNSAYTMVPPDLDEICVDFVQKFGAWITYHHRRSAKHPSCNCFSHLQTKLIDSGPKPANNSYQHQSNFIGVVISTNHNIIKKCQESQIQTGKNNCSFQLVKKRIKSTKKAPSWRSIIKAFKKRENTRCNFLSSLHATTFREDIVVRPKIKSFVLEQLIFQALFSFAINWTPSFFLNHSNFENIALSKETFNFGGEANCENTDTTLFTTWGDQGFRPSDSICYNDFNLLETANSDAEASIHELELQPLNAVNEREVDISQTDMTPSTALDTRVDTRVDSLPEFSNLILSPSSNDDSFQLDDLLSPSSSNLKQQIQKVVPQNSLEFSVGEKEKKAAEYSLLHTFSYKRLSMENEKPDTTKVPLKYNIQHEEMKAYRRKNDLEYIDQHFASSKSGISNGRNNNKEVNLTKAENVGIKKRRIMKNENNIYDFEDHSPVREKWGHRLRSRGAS

T2: MBP-Epe1^434-948 (S. pombe, UniProt O94603 434-948)
T2 sequence: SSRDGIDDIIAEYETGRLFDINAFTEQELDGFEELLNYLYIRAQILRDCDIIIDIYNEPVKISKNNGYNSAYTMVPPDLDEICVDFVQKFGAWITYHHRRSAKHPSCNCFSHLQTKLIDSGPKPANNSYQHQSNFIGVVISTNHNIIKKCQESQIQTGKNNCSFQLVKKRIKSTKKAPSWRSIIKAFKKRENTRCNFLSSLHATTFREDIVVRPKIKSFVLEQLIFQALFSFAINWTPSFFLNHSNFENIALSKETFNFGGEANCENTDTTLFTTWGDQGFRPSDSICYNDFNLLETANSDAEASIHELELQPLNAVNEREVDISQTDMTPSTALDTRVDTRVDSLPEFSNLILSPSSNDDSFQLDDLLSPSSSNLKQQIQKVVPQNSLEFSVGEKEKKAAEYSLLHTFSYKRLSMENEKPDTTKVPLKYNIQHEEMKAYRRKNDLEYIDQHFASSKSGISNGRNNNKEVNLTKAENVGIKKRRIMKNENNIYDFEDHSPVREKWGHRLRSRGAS

B1: MBP-Epe1^434-600 (domain or fragment)
chain: SSRDGIDDIIAEYETGRLFDINAFTEQELDGFEELLNYLYIRAQILRDCDIIIDIYNEPVKISKNNGYNSAYTMVPPDLDEICVDFVQKFGAWITYHHRRSAKHPSCNCFSHLQTKLIDSGPKPANNSYQHQSNFIGVVISTNHNIIKKCQESQIQTGKNNCSFQLV
B2: 3X-FLAG Swi6^HP1 W104A (natural protein)
chain: MKKGGVRSYRRSSTSKRSVIDDDSEPELPSMTKEAIASHKADSGSSDNEVESDHESKSSSKKLKENAKEEEGGEEEEEDEYVVEKVLKHRMARKGGGYEYLLKAEGYDDPSDNTWSSEADCSGCKQLIEAYWNEHGGRPEPSKRKRTARPKKPEAKEPSPKSRKTDEDKHDKDSNEKIEDVNEKTIKFADKSQEEFNENGPPSGQPNGHIESDNESKSPSQKESNESEDIQIAETPSNVTPKKKPSPEVPKLPDNRELTVKQVENYDSWEDLVSSIDTIERKDDGTLEIYLTWKNGAISHHPSTITNKKCPQKMLQFYESHLTFRENE
B3: 3X FLAG-Swi6^HP1 purified from fission yeast cells (natural protein)
chain: B2 chain with A104W
B4: 3X FLAG-Swi6^HP1 (recombinant, E. coli) (natural protein)
chain: B2 chain with A104W

What all share (assay): pull-down
In experiment [1] the target is B4.
The target of experiment [2] is T1, MBP-Epe1 (wild-type, recombinant, full …).
For the next experiment, the target named is T2, MBP-Epe1^434-948.

Substitutions are numbered along the chain they refer to. Names may count otherwise.

For the molecule B1, in experiment [1], the binding result is given as “binds”.

B2: the binding result in experiment [2] is on record as “binds”.

In the case of B3, the binding result in experiment [2] is listed as “binds”.

As to B4, the binding result (with MBP-Epe1^434-948; in experiment [2]) was “binds” in each case.
